For the data set the following is noted: Escherichia coli (strain K12), CD, reversible: yes, whole UniProt chain shown.
Setting [1] is: pH 3, Thermal, glycine-HCl 10 mM.
The mark [2] stands for this setting: pH 5.5, 25 °C, Urea, Sodium acetate 10 mM, NaCl 0.1 M.

B1: Ribonuclease HI wild type, P0A7Y4 (protein)
chain: MLKQVEIFTDGSCLGNPGPGGYGAILRYRGREKTFSAGYTRTTNNRMELMAAIVALEALKEHCEVILSTDSQYVRQGITQWIHNWKKRGWKTADKKPVKNVDLWQRLDAALGQHQIKWEWVKGHAGHPENERCDELARAAAMNPTLEDTGYQVEV
Regarding B1, under setting [1], the Tm came to 49.8 °C and the “unfolding enthalpy (van 't Hoff)” value was 410 kJ/mol. Under setting [2], the denaturant m value was found to be 1.96 kcal/mol/M, the “denaturant midpoint (higher = more stable)” value came out at 5.01 M and the unfolding free energy was determined as 41 kJ/mol.

A word on the Tm: it is the temperature at which the thermal transition is half complete.

The values above are taken from FireProtDB (doi:10.1111/j.1432-1033.1992.tb16932.x).
